Publication PMC8251345, “Entropic pressure controls the oligomerization of the Vibrio cholerae ParD2 antitoxin” (Acta Crystallographica. Section D, Structural Biology, 2021)
Values joined by “and” are separate entries in the source; they are usually repeats but may differ in a detail not shown here. Identical values can stand only once. Like-named read-outs stand apart in the source and are kept apart here.

B1: Vibrio cholerae ParD2 antitoxin (natural protein)
chain: MAKNTSITLGEHFDGFITSQIQSGRYGSASEVIRSALRLLENQETKLQSLRQLLIEGEQSGDADYDLDSFINELDSENIR
notes: also called VcParD2

What was measured:
[1] = molecular target: N-terminal domain of Vibrio cholerae ParD2 as crystallised (V. cholerae); assay: crystal structure
[2] = molecular target: N-terminal domain of Vibrio cholerae ParD2 as crystallised (V. cholerae); assay: crystal structure; remark: listed apart in the source
[3] = molecular target: the molecule itself; assay: SAXS (SEC-SAXS)
[4] = molecular target: the molecule itself; assay: […]; pH 8.0 and pH 5.6, […]
[5] = molecular target: the molecule itself; assay: native MS

Molecule	stoichiometry N [1]	stoichiometry N [2]	stoichiometry N [3]	stoichiometry N [4]	stoichiometry N [5]
N-terminal domain of Vibrio cholerae ParD2 as crystallised (domain or fragment)	2	16	–	–	–
B1	–	–	12	10 and 8	2 and 4
